Results taken from patent publication US20110244498.

System: non-phosphorylated pKID-Abl

In the case of “Abl tyrosine kinase (New England Biolabs)”, the “conversion of non-phosphorylated pKID-Abl to phosphorylated pKID-Abl (analytical HPLC, 30 min at 37 C, 300 units Abl)” value is reported as 62% conversion of non-phosphorylated pKID-Abl to phosphorylated pKID-Abl in the absence of Gleevec, the “conversion of non-phosphorylated pKID-Abl to phosphorylated pKID-Abl in the presence of 50 µM Gleevec (analytical HPLC)” value is reported as “less than 5% conversion was observed in the presence of Gleevec” and the “terbium luminescence after incubation with kinase” value is reported as “resulted in a significant increase in terbium luminescence”.
